The values below come from patent US12318456B2, “Therapeutic nanoparticles containing argonaute for microRNA delivery and compositions and methods using same” (KOC UNIVERSITESI, priority 2018, dated 2025).

Data set [1] is described as follows: Hydrodynamic properties of SPIONs by dynamic light scattering. In kind it is physicochemical. The note with it: medium PBS; for HDR Z-average (hydrodynamic size): dynamic light scattering. As for the experimental part: Hydrodynamic properties of SPIONs were measured after each conjugation step to monitor colloidal stability (Table 2).
The test system of data set [2] is miR-376b. Nature of the data set: Flag immunoprecipitation of AGO2 and its domains, miRNA level by Taqman QPCR. It is filed as binding. The note with it: flag tagged proteins overexpressed in HEK293T cells, immunoprecipitated with flag beads. The text has this:
The miRNA is anchored in AGO2 protein and makes several kinks and turns along the binding groove (Elkayam et al. Cell. 2012. 150:100-110). A binding pocket composed of residues from PAZ and PIWI domains as previously observed interacts with miRNA (Boland et al. EMBO Rep. 2010. 11:522-527; Lingel et al. Nat Struct Mol Biol. 2004. 11:576-577; Schirle et al. Science. 2014. 346:608-613; Wang et al. Nature. 2008. 456:209-213). To determine which domain of AGO2 protein have the key role in miRNA binding affinity, flag tagged AGO2 protein and its domains, PAZ and PIWI, were overexpressed in HEK293T cells in the presence or absence of miR-376b overexpression and they immunoprecipitated with flag beads. […] It can be concluded that each domain of AGO2 protein is essential for the highest binding affinity (FIG. 10).

Consider “SPION/AGO2/PEG-MI: SPION/AGO2 reacted with NH2-PEG-Mal (2000 Da) linker”, for which, in data set [1], the “HDR Z-average (hydrodynamic size)” value is given as 30 nm, the PDI was determined as 0.59 and the “Zeta Potential” value is listed as −21 mV.
PAZ: flag tagged AGO2 fragment, aa1-480: the “miRNA binding affinity (miR-376b)” value in data set [2] was “partial role”.
On the same count and under the same terms, in the case of “full length AGO2 protein: flag tagged full length Argonaute-2 protein overexpressed in HEK293T cells” it was “greater affinity”.
Take “SPION/AGO2: AGO2 protein covalently attached to SPION/PAA via amide bond (EDC/NHS)”: in data set [1], the “HDR Z-average (hydrodynamic size)” value is 20 nm, the PDI is 0.43 and the “Zeta Potential” value is −23 mV.
